Experiments:
Assay type in all cases: cell-based
[1] = system: LPS + IFNγ‐stimulated primary human macrophages; assay: In vitro photodynamic therapy, MTT viability, LPS + IFNγ-stimulated macrophages; details: 30 µM 1 h 37 °C, washed
Text: (§1) We next coupled MACTIDE to the photosensitizer Verteporfin, intending to deplete CD206^+ TAM using photodynamic therapy (PDT). To this end, carboxy‐Verteporfin was coupled to the N‐terminus of MACTIDE, a construct referred to as “MACTIDE‐V” (Figure 5A). We performed in vitro photodynamic therapy with MACTIDE‐V on primary human macrophages stimulated with IL‐4 or LPS + IFNγ.
(§2) Figure 5 In vitro and in vivo photodynamic therapy with MACTIDE‐V. A) Structure of MACTIDE‐V. B) MACTIDE‐V, CtrlPep‐V, and DOX were incubated with primary human macrophages (obtained from monocytes derived from human blood buffy coat) at 30 µM for 1 h at 37 °C, followed by 2 washes with media. Then, the groups shown in pink were irradiated with 10 J cm^−2 (irradiance: 170 mW cm^−2, spot diameter: 0.5 cm). […] Peptide‐V conjugates were administered i.p. at a dose of 30 nmol (1 mg Kg^−1 in Verteporfin). For the irradiated groups, 4 h after administration of conjugates or PBS, the mice were irradiated with 100 J cm^−2; shown is primary tumor volume progression during treatment. Gray arrows indicate injection days. D) Bodyweight during the treatment as % of the initial one. E) Representative mIHC images of PBS, CtrlPep‐V, and MACTIDE‐V‐treated tumors, 20X magnification, scale bar = 100 µm, white triangles point to Foxp3^+ cells. F) CD8^+ T cells, CD4^+ T cells, and Treg density, n = 6 mice/group, with every dot representing the mean cell density of each tumor obtained from 20 images. G) CD8^+ T cells density in CK8^+‐dense tumor regions. n = 5 mice/group, with every dot representing the mean cell density of each tumor obtained from 20 images. Median ± interquartile range. One‐way ANOVA with multiple comparisons, ^* p ≤ 0.05, ^** p ≤ 0.01.
(§3) Human peripheral mononuclear cells (PBMCs) were purified from human blood buffy coats following the protocol described previously.^[ [24] ^] […] Crystal formation was monitored every 20–30 min to not oversaturate the absorbance values.

[2] = system: mouse bone marrow‐derived macrophages (BMDM); assay: Phagocytosis of live 4T1-GFP cancer cells by BMDM; details: Balb/c BMDM, 10 µM 4 h, washed, 48 h, then 2 h with 4T1-GFP cells, n = 3
Experimental: We then analyzed if MACTIDE‐V affected the phagocytic activity of BMDM in vitro.
For the live 4T1‐GFP phagocytosis assay, 4T1‐GFP cells were cultured in RPMI1640 supplemented with 10% (v/v) FBS and 1% penicillin/streptomycin at 37 °C, 5% CO2. BMDM were seeded on Ibidi plates (Ibidi, cat# 80821) and at day 5 were treated with MACTIDE and conjugates as previously described (10 µM during 4h, followed by washing with media). Then, 48h later, the BMDM were incubated for 2 h with 2×10^5 4T1‐GFP cells (the area of the wells is 1 cm^2). Then, the supernatant was removed, and the wells were washed with media and then with PBS. Then, the cells were fixed with ice‐cold acetone for 10 min. Fixed cells were then washed with PBS, permeabilized with PBS‐0.2% Triton for 10 min and washed with PBS‐T (PBS+0.05% Tween‐20 (v/v)), and then incubated with blocking buffer (5% BSA (w/v), 5% FBS (v/v) in PBS‐T) for 1 h at room temperature. […] The mean GFP signal intensity was quantified from the images using ImageJ and normalized to the amount of DAPI^+ nuclei.
Figure S4. […] Scale bars= 50µm.The mean GFP signal intensity was quantified from the images using ImageJ and normalized to the amount of DAPI^+ nuclei (right panel). […]

[3] = system: IL‐4‐stimulated primary human macrophages; assay: In vitro photodynamic therapy, MTT viability, IL-4-stimulated macrophages; details: 30 µM 1 h 37 °C, washed
Text: as §1, §2, §3

[4] = with or without 10 J cm^−2, 48 h
[5] = irradiated 10 J cm^−2 (689 nm), 48 h, n = 6

Substance | toxicity with and without irradiation [1, 4] | phagocytosis of live 4T1 cancer cells labeled with GFP [2] | toxicity with and without irradiation [3, 4] | macrophages depleted, irradiated [1, 5] [%] | toxicity, non‐irradiated ([1]; no irradiation, 48 h, n = 6) | macrophages depleted, irradiated [3, 5] [%] | toxicity, non‐irradiated ([3]; no irradiation, 48 h, n = 6)
Vert‐Ahx‐AKPCGS‐OH [CtrlPep‐V, reference compound] | no toxicity | negligible phagocytosis | no toxicity | – | – | – | –
Vert‐Ahx‐G(CTKSIPPIC)SPGAK‐OH (disulfide) [MACTIDE‐V] | – | cancer cell phagocytosis only in the MACTIDE‐V treated BMDM | – | 40 | no toxicity | 80 | no toxicity
